Measured values: PMC10849593 (Science Advances, 2024)
Values belong to the binder of their own block, whether it stands above or below them.

Tests used:
[1] = target: T1, MutSβ WT, MSH3 subunit;MutSβ, MSH2 subunit (human;human?, UniProt P20585;P43246 1-1137;1-934, |); assay: pull-down
[2] = target: MutLβ (MLH1-PMS1 heterodimer) carrying a 6xHis tag on the PMS1 subunit (human, UniProt P40692;P54277); assay: pull-down
[3] = target: T1, MutSβ WT, MSH3 subunit;MutSβ, MSH2 …; assay: EMSA

B1: b66-G4 (structured_DNA)
DNA: TTTTTTTTTTTTTTTTTTTTTTTTTTTTTTTTTTTTTTTTTTTTTGGGTGGGTGGGTGGGTTTTTT
binding result [1]: binds

binding result [2]: binds
B2: Flag-tagged FANCJ (enzyme)
chain: MSSMWSEYTIGGVKIYFPYKAYPSQLAMMNSILRGLNSKQHCLLESPTGSGKSLALLCSALAWQQSLSGKPADEGVSEKAEVQLSCCCACHSKDFTNNDMNQGTSRHFNYPSTPPSERNGTSSTCQDSPEKTTLAAKLSAKKQASIYRDENDDFQVEKKRIRPLETTQQIRKRHCFGTEVHNLDAKVDSGKTVKLNSPLEKINSFSPQKPPGHCSRCCCSTKQGNSQESSNTIKKDHTGKSKIPKIYFGTRTHKQIAQITRELRRTAYSGVPMTILSSRDHTCVHPEVVGNFNRNEKCMELLDGKNGKSCYFYHGVHKISDQHTLQTFQGMCKAWDIEELVSLGKKLKACPYYTARELIQDADIIFCPYNYLLDAQIRESMDLNLKEQVVILDEAHNIEDCARESASYSVTEVQLRFARDELDSMVNNNIRKKDHEPLRAVCCSLINWLEANAEYLVERDYESACKIWSGNEMLLTLHKMGITTATFPILQGHFSAVLQKEEKISPIYGKEEAREVPVISASTQIMLKGLFMVLDYLFRQNSRFADDYKIAIQQTYSWTNQIDISDKNGLLVLPKNKKRSRQKTAVHVLNFWCLNPAVAFSDINGKVQTIVLTSGTLSPMKSFSSELGVTFTIQLEANHIIKNSQVWVGTIGSGPKGRNLCATFQNTETFEFQDEVGALLLSVCQTVSQGILCFLPSYKLLEKLKERWLSTGLWHNLELVKTVIVEPQGGEKTNFDELLQVYYDAIKYKGEKDGALLVAVCRGKVSEGLDFSDDNARAVITIGIPFPNVKDLQVELKRQYNDHHSKLRGLLPGRQWYEIQAYRALNQALGRCIRHRNDWGALILVDDRFRNNPSRYISGLSKWVRQQIQHHSTFESALESLAEFSKKHQKVLNVSIKDRTNIQDNESTLEVTSLKYSTSPYLLEAASHLSPENFVEDEAKICVQELQCPKIITKNSPLPSSIISRKEKNDPVFLEEAGKAEKIVISRSTSPTFNKQTKRVSWSSFNSLGQYFTGKIPKATPELGSSENSASSPPRFKTEKMESKTVLPFTDKCESSNLTVNTSFGSCPQSETIISSLKIDATLTRKNHSEHPLCSEEALDPDIELSLVSEEDKQSTSNRDFETEAEDESIYFTPELYDPEDTDEEKNDLAETDRGNRLANNSDCILAKDLFEIRTIKEVDSAREVKAEDCIDTKLNGILHIEESKIDDIDGNVKTTWINELELGKTHEIEIKNFKPSPSKNKGMFPGFK

B3: CEB1 G4 (structured_DNA)
DNA: AGGGGGGAGGGAGGGTGG
binding result [3]: binds
